This is an account of results in patent US20260125454A1 (SHANGHAI JUNSHI BIOSCIENCES, published 2026).

For assay [1], the target named is CGRP antigen. The assay is described as follows: cell-based or functional assay.
Assay [2] addresses T1, Biotin-huCGRPaSA (human, not fully specified; biotin (position not given)).
T1 construct: exact construct ('aSA') not explained; also called Biotin CGRPaSA; full-length (1-37) CGRP
T1 peptide: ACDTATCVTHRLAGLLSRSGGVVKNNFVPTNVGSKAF
Kind of assay: ELISA, supernatant; relative to chimeric C245. An outline of the steps: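 Plates coated with biotin-CGRPaSA at 1.0 μg/mL (90 min, 37°C) and blocked with 2% BSA. Humanized antibodies and chimeric C245 reference, 2.5-fold serial dilutions from 1000 ng/mL, bound 60 min at 37°C. Detection by HRP anti-human IgG (Fc), TMB 15 min, read at 450/620 nm.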
A general note: An ELISA detects its analyte on a solid surface through an enzyme-linked reagent.

Positions count from the first letter of the chain named.

B1: hu37 (antibody, V domains shown)
VH: QVQLVQSGAEVKKPGASVKVSCKASGYTFIDFNMHWVRQAPGQRLEWMGYIYPYNGDVVYNQNFTNRVTLTVDTSSSTAYMELSSLRSEDTAVYYCAREGLGGYWGQGTLVTVSS
VL: DIVLTQSPDSLAVSLGERATINCKASQNIDYDGYTYLNWYQQKPGQPPKVLIYSIFNLESGVPDRFSGSGSGTDFTLTISSLQAEDVAVYYCQQSNEVPYTFGQGTKLEIK
notes: 1F5 HC-1/3E5 LC-1
Take B1: in assay [1], the “IC50” value worked out at 0.0784 µg/mL and the “relative activity (%) vs Ref(TEVA)” value was determined as 46%. For the same molecule, the “Relative binding activity, %” value in assay [2] amounted to 142%.

B2: hu177 (antibody, V domains shown)
VH: QVQLVQSGAEVKKPGASVKVSCKASGYTFTDYNMHWVRQAPGQGLEWMGYISPYNGGTAYNQKFKFRVTLTVDTSSSTAYMELSRLRSDDTVVYYCAREGLGGYWGQGTLVTVSS
VL: B1 VL with Y31F, T35A, L37M, Q42H, I55V, N96H
notes: 3E5 HC-3/1F5 LC1-4
On to B2, for which, in assay [2], the “Relative binding activity, %” value is 25%.

B3: hu194 (antibody, V domains shown)
VH: B2 VH with A24T, G44R, G56A, R85S, D89E, V92A
VL: B1 VL with D32G, T35S, L37M, I55V, V98A
notes: 3E5 HC-4/3H10 LC2-1
Take B3: the “Relative binding activity, %” value in assay [2] is 98%.

B4: hu90 (antibody, V domains shown)
VH: B1 VH with G56A, N63D
VL: B1 VL with D32G, T35S, L37M, I55V, V98A
notes: 1F5 HC-5/3H10 LC2-1
As to B4, in assay [1], half-maximal inhibition (IC50) required 0.058 µg/mL and the “relative activity (%) vs Ref(TEVA)” value came to 53%. In addition, in assay [2], the “Relative binding activity, %” value was 102%.

B5: hu190 (antibody, V domains shown)
VH: B2 VH with A24T, G44R, G56A, R85S, D89E, V92A
VL: B1 VL with Y31F, T35A, L37M, Q42H, I55V, N96H
notes: 3E5 HC-4/1F5 LC1-4
B5: the “Relative binding activity, %” value in assay [2] came out at 34%.

B6: hu169 (antibody, V domains shown)
VH: B2 VH with G44R, R85S, D89E, V92A
VL: DIQLTQSPSSLSASVGDRVTITCKASQNIDYGGYSYMNWYQQKPGKAPKVLIYSVFNLESGVPSRFSGSGSGTDFTLTISSLQPEDFATYYCQQSNEAPYTFGQGTKLEIK
notes: 3E5 HC-2/3H10 LC2-2
B6: in assay [2], the “Relative binding activity, %” value came to 16%.

B7: hu181 (antibody, V domains shown)
VH: B2 VH
VL: B1 VL with D32G, T35S, L37M, I55V, V98A
notes: 3E5 HC-3/3H10 LC2-1
Take B7: the “Relative binding activity, %” value in assay [2] was 67%.

B8: hu168 (antibody, V domains shown)
VH: B2 VH with G44R, R85S, D89E, V92A
VL: B1 VL with D32G, T35S, L37M, I55V, V98A
notes: 3E5 HC-2/3H10 LC2-1
On to B8, for which, in assay [2], the “Relative binding activity, %” value was 68%.

B9: hu100 (antibody, V domains shown)
VH: B2 VH with G44R, I51V, S52Y, T58S, F66S, R85S, D89E, V92A
VL: DIVLTQSPDSLAVSLGERATINCQASQNIDGNTYMNWYQQKPGQPPKVLIYSIFNLESGVPDRFSGSGSGTDFTLTISSLQAEDVAVYYCQQSNDYPYTFGQGTKLEIK
notes: 2A2 HC-1/2B8 LC2-1
As to B9, in assay [1], the “IC50” value was determined as 0.11 µg/mL and the “relative activity (%) vs Ref(TEVA)” value is 28%. For the same molecule, the “Relative binding activity, %” value in assay [2] came to 133%.

B10: hu129 (antibody, V domains shown)
VH: B2 VH with Y50N, S52Y, A59V, K65N, F66N, S84R, R85S, V92A
VL: B1 VL with D32G, T35S, L37M, I55V, V98A
notes: 2B8 HC1-2/3H10 LC2-1
Turning to B10, in assay [1], it took 0.088 µg/mL to reach half-maximal inhibition (IC50) and the “relative activity (%) vs Ref(TEVA)” value amounted to 39%. Further, the “Relative binding activity, %” value in assay [2] was 117%.

B11: hu193 (antibody, V domains shown)
VH: B2 VH with A24T, G44R, G56A, R85S, D89E, V92A
VL: B1 VL
notes: 3E5 HC-4/3E5 LC-1
Regarding B11, in assay [1], the “IC50” value came out at 0.0775 µg/mL and the “relative activity (%) vs Ref(TEVA)” value came out at 42%. Also, the “Relative binding activity, %” value in assay [2] came to 100%.

B12: hu89 (antibody, V domains shown)
VH: B1 VH with G56A, N63D
VL: B1 VL
notes: 1F5 HC-5/3E5 LC-1
Turning to B12, in assay [1], the “IC50” value is 0.0979 µg/mL and the “relative activity (%) vs Ref(TEVA)” value was found to be 48%. In assay [2], the “Relative binding activity, %” value is 112%.

B13: hu87 (antibody, V domains shown)
VH: B1 VH with G56A, N63D
VL: B9 VL
notes: 1F5 HC-5/2B8 LC2-1
As for B13, in assay [1], the concentration for half-maximal inhibition (IC50) stood at 0.124 µg/mL and the “relative activity (%) vs Ref(TEVA)” value was 38%. In addition, the “Relative binding activity, %” value in assay [2] came to 138%.

B14: hu154 (antibody, V domains shown)
VH: B2 VH with A24T, G44R, R85S, D89E, V92A
VL: B1 VL
notes: 3E5 HC-1/3E5 LC-1
With B14, in assay [1], inhibition was half-maximal at 0.0905 µg/mL (IC50) and the “relative activity (%) vs Ref(TEVA)” value was 36%. Besides, the “Relative binding activity, %” value in assay [2] is 121%.

B15: hu128 (antibody, V domains shown)
VH: B2 VH with Y50N, S52Y, A59V, K65N, F66N, S84R, R85S, V92A
VL: B1 VL
notes: 2B8 HC1-2/3E5 LC-1
Consider B15, for which, in assay [1], it took 0.109 µg/mL to reach half-maximal inhibition (IC50) and the “relative activity (%) vs Ref(TEVA)” value is 28%. The “Relative binding activity, %” value in assay [2] came to 117%.

B16: hu167 (antibody, V domains shown)
VH: B2 VH with G44R, R85S, D89E, V92A
VL: B1 VL
notes: 3E5 HC-2/3E5 LC-1
With B16, in assay [1], 0.125 µg/mL corresponded to half-maximal inhibition (IC50) and the “relative activity (%) vs Ref(TEVA)” value was 26%. In assay [2], the “Relative binding activity, %” value amounted to 101%.

B17: hu50 (antibody, V domains shown)
VH: B1 VH with I30T
VL: B1 VL
notes: 1F5 HC-2/3E5 LC-1
Regarding B17, in assay [1], it took 0.0668 µg/mL to reach half-maximal inhibition (IC50) and the “relative activity (%) vs Ref(TEVA)” value was 46%. For the same molecule, in assay [2], the “Relative binding activity, %” value stood at 132%.

B18: hu64 (antibody, V domains shown)
VH: B1 VH with I30T, R44G, S84R, E89D
VL: B1 VL with D32G, T35S, L37M, I55V, V98A
notes: 1F5 HC-3/3H10 LC2-1
In the case of B18, in assay [1], the “IC50” value is 0.0699 µg/mL and the “relative activity (%) vs Ref(TEVA)” value turned out to be 44%. Also, the “Relative binding activity, %” value in assay [2] amounted to 116%.

B19: hu63 (antibody, V domains shown)
VH: B1 VH with I30T, R44G, S84R, E89D
VL: B1 VL
notes: 1F5 HC-3/3E5 LC-1
B19: in assay [1], 0.05 µg/mL corresponded to half-maximal inhibition (IC50) and the “relative activity (%) vs Ref(TEVA)” value amounted to 62%. In assay [2], the “Relative binding activity, %” value amounted to 122%.

B20: hu131 (antibody, V domains shown)
VH: B2 VH with Y50N, S52Y, G56A, A59V, K65N, F66N, V92A
VL: DIVLTQSPASLAVSPGQRATITCKASQNIDYDGYAYLNWYQQKPGQPPKVLIYSVFNLESGVPARFSGSGSGTDFTLTINPVEANDTANYYCQQSNEFPYTFGQGTKLEIK
notes: 2B8 HC1-3/1A2 LC2-1
B20: in assay [1], 0.0425 µg/mL corresponded to half-maximal inhibition (IC50) and the “relative activity (%) vs Ref(TEVA)” value is 80%. In addition, in assay [2], the “Relative binding activity, %” value turned out to be 107%.

B21: hu189 (antibody, V domains shown)
VH: B2 VH with A24T, G44R, G56A, R85S, D89E, V92A
VL: B20 VL with Y31F, L37M, N85D, N96H, F98V
notes: 3E5 HC-4/1F5 LC1-3
For the molecule B21, in assay [2], the “Relative binding activity, %” value was found to be 73%.

B22: hu195 (antibody, V domains shown)
VH: B2 VH with A24T, G44R, G56A, R85S, D89E, V92A
VL: B6 VL
notes: 3E5 HC-4/3H10 LC2-2
Consider B22, for which the “Relative binding activity, %” value in assay [2] turned out to be 23%.

B23: hu182 (antibody, V domains shown)
VH: B2 VH
VL: B6 VL
notes: 3E5 HC-3/3H10 LC2-2
For B23, in assay [2], the “Relative binding activity, %” value amounted to 31%.

B24: hu145 (antibody, V domains shown)
VH: B2 VH with A24T, G44R, R85S, D89E, V92A
VL: B20 VL with N85D
notes: 3E5 HC-1/1A2 LC2-2
For B24, in assay [1], the “IC50” value was determined as 0.0978 µg/mL and the “relative activity (%) vs Ref(TEVA)” value is 35%. In addition, the “Relative binding activity, %” value in assay [2] is 119%.

B25: hu71 (antibody, V domains shown)
VH: QVQLVQSGSELKKPGASVKVSCKASGYTFTDFNMHWVRQAPGQGLEWMGYIYPYNGDVVYNQNFTNRFVLSVDSSSSTAYLQISSLKAEDTAVYYCAREGLGGYWGQGTLVTVSS
VL: EIVLTQSPATLSLSPGERATLSCKASQNIDFDGYAYMNWYQHKPGQAPRVLIYSVFNLESGIPARFSGSGSGTDFTLTISSLEPEDFAVYYCQQSHEVPYTFGQGTKLEIK
notes: 1F5 HC-4/1F5 LC1-2
B25: in assay [1], the 50% inhibitory concentration (IC50) came to 0.0404 µg/mL and the “relative activity (%) vs Ref(TEVA)” value turned out to be 77%. Further, the “Relative binding activity, %” value in assay [2] came to 120%.

B26: hu185 (antibody, V domains shown)
VH: B2 VH with A24T, G44R, G56A, R85S, D89E, V92A
VL: B25 VL with F31Y, M37L, H42Q, H96N, V98F
notes: 3E5 HC-4/1A2 LC2-3
B26: in assay [2], the “Relative binding activity, %” value was found to be 19%.

One may read the IC50 as the concentration that gives 50% inhibition. Read a low IC50 as inhibition by little substance.
